Square brackets hold non-standard residues; d marks the D form. Ends that are not written are not given here. pS = N[C@@H](COP(=O)(O)O)C(=O)O
Tests used:
PKC-theta = target: T1, PKC-theta (Homo sapiens, UniProt Q04759); experiment: In vitro kinase assay: peptide phosphorylation by PKC-theta; format: biochemical; details: for Measured in vitro phosphorylation by PKC-theta: normalized to best substrate
T1 construct: His-tag; made in house; host or cells: baculovirus-infected Sf9 cells
Source text: A second strategy for validation of the PSSM derived from the methods described herein is to identify sequences represented in the human proteome that have low percentiles derived from the PSSM, to synthesize peptides that have those sequences, and test the efficiency of phosphorylation of those peptides by the kinase of interest. […] The results are shown for individual peptides (FIG. 11, panel A) or for groups of peptides aggregated by percentile prediction (FIG. 11, panel B). As with the testing described above with prospectively chosen peptides, the percentile scores are highly predictive of phosphorylation by the relevant kinase.
An example of the purification procedure used for production of active kinase is as follows. A preparation of PKC-theta was prepared using a Gateway expression construct containing PKC-theta that was expressed in baculovirus, which were used to infect Sf9 cells. The cell pellet from a liter of baculovirus-infected Sf9 cells was resuspended in 20 volumes (60 ml) of extraction buffer (20 mM Na phosphate buffer pH 7.5, 500 mM NaCl, 5 mM pyrophosphate, 10% glycerol, 10 mM imidazole, 1 mM PMSF), sonicated twice for one minute (1 cm tip at 60% power and 50% duty cycle) and cell disruption was verified microscopically. The sample was adjusted to five mM MgCl2 and treated with one U benzonase/ml for an additional 20 minute on ice. The sample was clarified by centrifugation in a JA-20 rotor at 15K for 30 min at 4° C., filtered through a […] filter and applied at 0.5 ml/min to a one ml chelating sepharose column previously charged with nickel and equilibrated with extraction buffer. The column was washed with extraction buffer at one ml/min to baseline and eluted in a 20 ml gradient (20-500 mM imidazole in extraction buffer) into one ml fractions that were analyzed by SDS-PAGE. Fractions with the highest concentration of protein were pooled, were dialyzed twice against one liter of 20 mM Na PO4 pH 7.5, 50 mM NaCl buffer. The kinase pool was dialyzed twice against 20 mM HEPES pH 7.4, 100 mM NaCl, 2 mM EDTA, 5 mM DTT, 0.05% Triton-X-100. After dialysis, the sample was adjusted to 50% glycerol and quick-frozen in a dry ice/ethanol bath.
The conditions of the kinase assay and the amount of active kinase used varied with the kinase and with the accuracy needed. For a typical experiment, 5-20 ng of kinase was used per well and each peptide pool was assayed in duplicate wells. Note that the absolute amount of kinase used was not usually a critical parameter, because the desired information related to specificity of the kinase not its absolute activity, and robustness of the assay depends on comparisons of the same amount of kinase on different peptides. The combination of kinase concentration and assay duration was modified to assure that the stoichiometry of peptide phosphorylation never exceeded 5%. The choice of kinase buffer depended on the kinase being analyzed. For studies of PKC, 100 mM HEPES, 0.05% Triton-X100, 1 mM CaCl2, 20 mM MgCl2, 0.2 mg/ml phosphatidyl serine (Avanti Polar Lipids), PMA 100 ng/ml was typically used. The lipid stock was prepared by transferring 3 mg phosphatidyl serine into iced mixture of 450 μl water plus 50 μl of 10% Triton-X100, sonicating 10 times on ice for 1 sec each.
The kinase reaction mixture was assembled by sequential addition to a tube held on ice of: 5 μl peptide (100 μM for final concentration of 10 μM), 15 μl of kinase (typically 5 ng/well, in appropriate kinase buffer), 30 μl of ATP (1 uCi/well of ^32P-gamma ATP in a stock of 167 μM cold ATP in the kinase buffer; for final concentration for 100 μM ATP). The mixture was rapidly warmed to desired reaction temperature (30° C. for PKC) and incubated for the desired duration (usually 10 minutes). The kinase assay was terminated by transfer to 4° C. water batch, and rapid addition of an equal volume (50 μl) of stop solution [0.1M ATP+0.1M EDTA in water, pH 8]. […]

pPKC antibody = experiment: ELISA binding of pPKC antibody to synthesized SHP-1 phosphopeptides; details: for Binding of pPKC antibody: ELISA on phosphopeptide, normalized to the value for the Ser-591 peptide; for binding of pPKC antibody to phosphorylated peptide: ELISA
Description: Tests were conducted to test whether SHP-1 is phosphorylated in vivo at Ser-591, Ser-26 or Ser-300. To do so, a strategy was employed that used a commercially available antibody from Cell Signaling Technology that is referred to as a phospho-PKC motif antibody (designated herein as pPKC Ab). (See U.S. Pat. No. 6,441,140 and Cell Signaling Technology Datasheet for ‘Phospho-(Ser) PKC Substrate Antibody’). […] Such antibodies can be used for detection of unknown proteins that contain phosphorylation sites conforming to the motif to which they bind. For example, phosphorylated proteins can be detected on two-dimensional gels with the pPKC Ab and the identity of these phosphorylated proteins can be confirmed by the observed molecular weight, isoelectric point and other information such as the predictive algorithms provided herein. Similarly, such detected proteins can be enriched by classical biochemical separations, and when sufficiently enriched, can be identified by mass spectrometry (Astoul E et al. 2003. J Biol Chem 278:9267-9275).
Because these studies of SHP-1 were an early precedent-setting study, a rigorous approach was adopted in determining whether pPKC antibody binding included one or more of the three predicted SHP-1 sites. Phosphorylated peptides corresponding to the three best predicted PKC sites were synthesized (Table 7) in microtiter wells using a method of prior art described in U.S. Pat. No. 6,031,074. In addition, phosphorylated peptides corresponding to others sites in SHP-1 that match part of the motif detected by the pPKC antibody were also synthesized. Those phosphorylated peptides were then analyzed for reactivity with the pPKC antibody in an ELISA assay.
Among the phosphorylated peptides corresponding to sites in SHP-1, the best binding of pPKC antibody was detected with the phosphorylated peptide corresponding to Ser-591 (Table 7; […]).

T1 sequence (Q04759 whole entry): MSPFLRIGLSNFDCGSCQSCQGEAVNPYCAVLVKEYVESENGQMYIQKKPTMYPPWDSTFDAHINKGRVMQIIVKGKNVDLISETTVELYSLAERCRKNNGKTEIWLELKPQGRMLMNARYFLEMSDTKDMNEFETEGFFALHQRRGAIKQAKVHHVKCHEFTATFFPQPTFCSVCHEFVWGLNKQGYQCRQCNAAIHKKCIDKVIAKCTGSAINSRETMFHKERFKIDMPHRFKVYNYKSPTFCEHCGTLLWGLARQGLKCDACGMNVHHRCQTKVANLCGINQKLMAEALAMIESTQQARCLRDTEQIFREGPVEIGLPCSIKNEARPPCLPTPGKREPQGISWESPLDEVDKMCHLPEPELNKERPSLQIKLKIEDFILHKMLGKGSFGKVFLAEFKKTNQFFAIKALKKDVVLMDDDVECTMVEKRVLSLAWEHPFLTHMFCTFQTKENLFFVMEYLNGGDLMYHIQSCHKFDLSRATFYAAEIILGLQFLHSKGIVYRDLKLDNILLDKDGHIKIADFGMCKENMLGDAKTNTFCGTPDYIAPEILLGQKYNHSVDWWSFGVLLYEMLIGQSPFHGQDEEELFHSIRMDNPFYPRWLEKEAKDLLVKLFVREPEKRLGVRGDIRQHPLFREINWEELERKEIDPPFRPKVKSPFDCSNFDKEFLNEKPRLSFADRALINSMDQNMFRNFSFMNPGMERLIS

Substance	Measured in vitro phosphorylation by PKC-theta (PKC-theta) [%]	further results
168 (AMSRSASKRRSR) [compound 168]	100	
169 (RTRSRRLTFRK) [compound 169]	100	
170 (VKLRRSKKRTKR) [compound 170]	98	
171 (RRGRRSTKKRRR) [compound 171]	92	
172 (VRRRRSQRISQR) [compound 172]	86	
173 (RSGRRRGSQKS) [compound 173]	85	
174 (KKERRRNSINRN) [compound 174]	83	
175 (KKRRTKSSRRGV) [compound 175]	80	
176 (RRERSRSRRKQ) [compound 176]	66	
177 (RRRRRRSRTFSR) [compound 177]	66	
178 (RRRRSRTFSRS) [compound 178]	65	
179 (KRHYRKSVRSRS) [compound 179]	65	
180 (FLRRSSSRRNRS) [compound 180]	65	
181 (TGERKRKSVRG) [compound 181]	62	
182 (TKKKRGSYRGGS) [compound 182]	61	
183 (ARRSKRSRRRET) [compound 183]	55	
184 (FRASSRSTTK) [compound 184]	54	
185 (KKFKRRLSLTLR) [compound 185]	51	
186 (DFRRRRSFRRIA) [compound 186]	50	
187 (LRRKSSTRHIHA) [compound 187]	48	
188 (ERGRRGSKKGSI) [compound 188]	44	
189 (GRRRRSRSKVK) [compound 189]	43	

Substance	Measured in vitro phosphorylation by PKC-theta (PKC-theta) [%]	further results
190 (RRRRHTMDKDSR) [compound 190]	40	
191 (HKRNSVRLVIR) [compound 191]	38	
192 (GNRKGKSKKWRQ) [compound 192]	35	
193 (PLRKSSLKKGGR) [compound 193]	35	
194 (KRRKRKSLQRHK) [compound 194]	34	
195 (PGSSHRKTKK) [compound 195]	33	
196 (RWKRRRSYSREH) [compound 196]	32	
197 (ILRPSKSVKLRS) [compound 197]	32	
198 (RRRRPTKSKGSK) [compound 198]	28	
199 (RGRRSRSRLRRR) [compound 199]	27	
200 (EQQRRALSFRQ) [compound 200]	26	
201 (TQDRRKSLFKKI) [compound 201]	25	
202 (VMKRKFSLRAAE) [compound 202]	24	
203 (VRRSKKSKKKES) [compound 203]	24	
204 (RFSRRSSSWRIL) [compound 204]	22	
205 (EGRRSRSRRYSG) [compound 205]	22	
206 (KSSRNSTSVKKK) [compound 206]	19	
207 (SFRGHITRKKLK) [compound 207]	18	
208 (VSRPRKSRKRVD) [compound 208]	17	
209 (DKEKSKGSLKRK) [compound 209]	17	in vitro phosphorylation by PKC (PKC-theta): phosphorylated by PKC
210 (PLRRRESMHVEQ) [compound 210]	16	
211 (RSRSYSRSRSR) [compound 211]	16	

Substance	Measured in vitro phosphorylation by PKC-theta (PKC-theta) [%]	further results
212 (VSRGSSLKILSK) [compound 212]	13	
213 (RHSRSRSRHRLS) [compound 213]	13	
214 (SRRRSPSYSRHS) [compound 214]	13	
215 (TKKRSKSRSKER) [compound 215]	12	
216 (SCRTSSRKRAGK) [compound 216]	11	
289 (MKNAHAKA[pS]RTSSKHKE) [compound 289]		Binding of pPKC antibody (pPKC antibody): 18
290 (RVILQGRD[pS]NIPGSDYI) [compound 290]		Binding of pPKC antibody (pPKC antibody): 13
291 (AHAKASRT[pS]SKHKEDVY) [compound 291]		Binding of pPKC antibody (pPKC antibody): 12
292 (KKKLEVLQ[pS]QKGQESEY) [compound 292]		Binding of pPKC antibody (pPKC antibody): 11
293 (PSEPGGVL[pS]FLDQINQR) [compound 293]		Binding of pPKC antibody (pPKC antibody): 9
294 (HAKASRTS[pS]KHKEDVYE) [compound 294]		Binding of pPKC antibody (pPKC antibody): 7
295 (PWTFLVRE[pS]LSQPGDFV) [compound 295]		Binding of pPKC antibody (pPKC antibody): 5
296 (KNQGDFSL[pS]VRVGDQVT) [compound 296]		Binding of pPKC antibody (pPKC antibody): 3
297 (PLNCSDPT[pS]ERWYHGHM) [compound 297]		Binding of pPKC antibody (pPKC antibody): 0
298 (ADKEKSKG[pS]LKRK) [compound 298]		Binding of pPKC antibody (pPKC antibody): 100
299 (LKGRGVHG[pS]FLARPSRK) [compound 299]		Binding of pPKC antibody (pPKC antibody): 54
300 (HGSFLARP[pS]RKNQGDFS) [compound 300]		Binding of pPKC antibody (pPKC antibody): 39
ADKEKSKG-pS-LKRK---- (ADKEKSKG[pS]LKRK) [SEQ ID NO 298]		binding of pPKC antibody to phosphorylated peptide (pPKC antibody): best binding
HGSFLARP-pS-RKNQGDFS (HGSFLARP[pS]RKNQGDFS) [SEQ ID NO 300]		binding of pPKC antibody to phosphorylated peptide (pPKC antibody): distinctly lower but readily detectable binding
LKGRGVHG-pS-FLARPSRK (LKGRGVHG[pS]FLARPSRK) [SEQ ID NO 299]		binding of pPKC antibody to phosphorylated peptide (pPKC antibody): distinctly lower but readily detectable binding

Source: US20050064507A1, “Determining kinase specificity” (priority 2003, published 2005)
